The source of these data is WO2021190480A1 (dated 2021).

The target in this experiment is T1, His-tagged human TROP-2 protein (TROP-2-His), Sino Biological cat# 10428-H08H (human, UniProt P09758 27-274).
T1 construct: also called TROP-2His protein; human TROP-2His antigen; not shown: His tag
T1 sequence (looked up): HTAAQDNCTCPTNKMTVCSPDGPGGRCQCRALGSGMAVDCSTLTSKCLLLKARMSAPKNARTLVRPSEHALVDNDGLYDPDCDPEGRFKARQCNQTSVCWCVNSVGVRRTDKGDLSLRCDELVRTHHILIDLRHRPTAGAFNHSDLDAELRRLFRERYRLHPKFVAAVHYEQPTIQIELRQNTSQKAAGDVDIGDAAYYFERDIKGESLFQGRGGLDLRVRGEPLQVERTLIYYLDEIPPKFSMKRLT
Briefly: indirect ELISA, TROP-2-His coated at 1 ug/ml.

B1: murine monoclonal antibody M1 (antibody, V domains shown)
VH: QVQLQQPGAELVRPGASVKLSCRASGYTFTNYWMNWVKQRPEQGLEWIGRIDPNDSETHYNQKFKDRAILTVDKASNTAYMQLSGLTSEDSAVHYCARSGFGSTYWFFDVWGAGTTVTVSS
VL: DIVMTQSHKFMSTSVGDRVSITCKASQDVSTAVAWYQQKPGQSPKLLIYSASYRYTGVPDRFAGSGYGTDFTFTISSVQTEDLTVYHCQQHYSTPLTFGPGTRLELK
By EC50 is commonly meant the concentration needed to bring the measured effect to its halfway point. Low values mean a more potent agent, high ones a less potent agent. With B1, a half-maximal effect (EC50) was put at 560 pM.
